According to patent US5861155:
Residue numbers refer to the chain shown, from its start. “And” between values parts separate entries of the source, which are not always exact repeats. Equal entries are not always repeated. Each block holds one binder with its values, some of them ahead of it.

Key:
[1] = molecular target: human T cell receptor with β chain variable region Vβ 5.2, on HPB-ALL cells (human); assay: 4H11-FITC competition assay, competitor label 4H11-FITC (cells not stated in the example)
[2] = molecular target: human T cell receptor with β chain variable region Vβ 5.2, on HPB-ALL cells (human); assay: flow cytometry on HPB cells, TM27 purified from NSO cells
[3] = molecular target: human T cell receptor with β chain variable region Vβ 5.2, on HPB-ALL cells (human); assay: flow cytometry on HPB cells, TM27 purified from CHO cells

value in the 4H11-FITC competition assay, fold against TM23 [1]: < 3 fold
mean channel fluorescence [2]: 507
mean channel fluorescence [3]: 283 and 322
B1: TM27 (antibody, V domains shown)
VH: QVQLQESGPGLVRPSQTLSLTCTVSGFSLTAYGVNWVRQPPGRGLEWLGMIWGDGNTDYNSALKSRVTMLKDTSKNQFSLRLSSVTAADTAVYYCARDRVTATLYAMDYWGQGSLVTVSS
VL: DIQMTQSPSSLSASVGDRVTITCSASQGISNYLNWYQQTPGKAPKLLIYYTSSLHSGVPSRFSGSGSGTDYTFTISSLQPEDIATYYCQQYSKLPRTFGQGTKLQIT

value in the 4H11-FITC competition assay, fold against TM23 [1]: < 3 fold
B2: TM27I (antibody, V domains shown)
VH: B1 VH with L48I
VL: B1 VL
